Assay [1] deals with T1, recombinant antigen of the extracellular region of CD47 (Sino Biological, Cat: 12283-H08H) (human, UniProt Q08722 19-139).
T1 construct: extracellular domain; also called recombinant CD47 extracellular region; CD47 recombinant protein
As to the kind of experiment: Fortebio BLI, recombinant CD47 extracellular region.

The target of assay [2] is T1, recombinant antigen of the …. As to the kind of experiment: Fortebio BLI, antibody on AHC sensor, CD47 extracellular region 100 nM.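 Note: antibody held on the sensor through anti-human Fc capture, CD47 antigen in solution, association and dissociation phases each lasting 300 s.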 On the technique in general: Biolayer interferometry detects binding as a change in optical thickness at a sensor tip.
Protocol: The affinity between the obtained mutant antibody and the CD47 recombinant protein was determined by Fortebio. The antibody was immobilized on the surface of a sensor with the anti-human Fc capture antibody (AHC Sensor), and reacted with the recombinant antigen of the extracellular region of CD47 (with a working concentration of 100 nM) in the liquid phase. The duration for binding and dissociation was both 300 seconds. The kinetic parameters were determined.

T1 sequence (Q08722 19-139 limits assumed): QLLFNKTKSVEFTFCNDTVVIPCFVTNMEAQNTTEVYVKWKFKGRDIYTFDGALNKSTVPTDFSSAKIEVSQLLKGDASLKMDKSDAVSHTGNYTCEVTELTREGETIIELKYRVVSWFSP

B1: 140Hm2/hz140L (Table 2) (antibody, V domains shown)
VH: QVQLVQSGAEVKKPGASVKVSCKASGYKFTNYAMHWVRQAPGQRLEWMGYINPYNDGIKYNEKFTGRVTITRDTSASTAYMELSSLRSEDTAVYYCAREGDFYANYGRLGFAYWGQGTLVTVSS
VL: DIQMTQSPSSLSASVGDRVTITCRASQDITNYLNWYQQKPGKAPKLLIYYTSRLHSGVPSRFSGSGSGTDYTFTISSLQPEDIATYFCQQGDTFPRTFGGGTKVEIK
notes: also called hz140-Hm/hz140L
In the case of B1, in assay [1], the equilibrium dissociation constant (Kd) was 2.67 nM, the koff came out at 0.00071 s⁻¹ and the kon was 266000 M⁻¹ s⁻¹.

B2: hz140-Hm5/hz182-L (antibody, V domains shown)
VH: QVQLVQSGAEVKKPGASVKVSCKASGYKFTNYVMHWVRQAPGQRLEWMGWINPYNDGIKYNEKFTGRVTITRDTSASTAYMELSSLRSEDTAVYYCAREGDFYANYGRLGFAYWGQGTLVTVSS
VL: DIQMTQSPSSLSASVGDRVTITCRASQDISNYLNWYQQKPGKAPKLLLYYTSRLHSGVPSRFSGSGSGTDYTLTISSLQPEDFATYFCQQGAGRPYTFGGGTKVEIK
For the molecule B2, in assay [2], the equilibrium dissociation constant (Kd) was 6.82 nM, the dissociation rate constant (koff) amounted to 0.00103 s⁻¹ and the kon was 151000 M⁻¹ s⁻¹.

B3: 140Hm3/hz140L (Table 2) (antibody, V domains shown)
VH: QVQLVQSGAEVKKPGASVKVSCKASGYKFTNYVMSWVRQAPGQRLEWMGYINPYNDGIKYNEKFTGRVTITRDTSASTAYMELSSLRSEDTAVYYCAREGDFYANYGRLGFAYWGQGTLVTVSS
VL: DIQMTQSPSSLSASVGDRVTITCRASQDITNYLNWYQQKPGKAPKLLIYYTSRLHSGVPSRFSGSGSGTDYTFTISSLQPEDIATYFCQQGDTFPRTFGGGTKVEIK
notes: also called hz140-Hm/hz140L
In the case of B3, in assay [1], the Kd came out at 5.12 nM, the koff is 0.00103 s⁻¹ and the on-rate constant (kon) came to 201000 M⁻¹ s⁻¹.

B4: 140Hm4/hz140L (Table 2) (antibody, V domains shown)
VH: QVQLVQSGAEVKKPGASVKVSCKASGYKFTNYVMHWVRQAPGQRLEWMGWINPYNDGIKYNEKFTGRVTITRDTSASTAYMELSSLRSEDTAVYYCAREGDFYANYGRLGFAYWGQGTLVTVSS
VL: DIQMTQSPSSLSASVGDRVTITCRASQDITNYLNWYQQKPGKAPKLLIYYTSRLHSGVPSRFSGSGSGTDYTFTISSLQPEDIATYFCQQGDTFPRTFGGGTKVEIK
notes: also called hz140-Hm/hz140L
For B4, in assay [1], the Kd amounted to 6.17 nM, the off-rate (koff) was found to be 0.00216 s⁻¹ and the on-rate constant (kon) was found to be 350000 M⁻¹ s⁻¹.

B5: 140Hm5/hz140L (Table 2) (antibody, V domains shown)
VH: QVQLVQSGAEVKKPGASVKVSCKASGYKFTNYVMHWVRQAPGQRLEWMGYINPGNDGIKYNEKFTGRVTITRDTSASTAYMELSSLRSEDTAVYYCAREGDFYANYGRLGFAYWGQGTLVTVSS
VL: DIQMTQSPSSLSASVGDRVTITCRASQDITNYLNWYQQKPGKAPKLLIYYTSRLHSGVPSRFSGSGSGTDYTFTISSLQPEDIATYFCQQGDTFPRTFGGGTKVEIK
notes: also called hz140-Hm/hz140L
With B5, in assay [1], the Kd came to 20.8 nM, the off-rate constant (koff) turned out to be 0.00467 s⁻¹ and the kon was 224000 M⁻¹ s⁻¹.

B6: hz140-Hm7/hz182-L (antibody, V domains shown)
VH: QVQLVQSGAEVKKPGASVKVSCKASGYKFTNYVMHWVRQAPGQRLEWMGYINPYNDGIKYNEKFQGRVTITRDTSASTAYMELSSLRSEDTAVYYCAREGDFYANYGRLGFAYWGQGTLVTVSS
VL: DIQMTQSPSSLSASVGDRVTITCRASQDISNYLNWYQQKPGKAPKLLLYYTSRLHSGVPSRFSGSGSGTDYTLTISSLQPEDFATYFCQQGAGRPYTFGGGTKVEIK
For B6, in assay [2], the Kd stood at 61.8 nM, the off-rate (koff) stood at 0.00767 s⁻¹ and the association rate constant (kon) came to 124000 M⁻¹ s⁻¹.

B7: hz140-Hm8/hz182-L (antibody, V domains shown)
VH: QVQLVQSGAEVKKPGASVKVSCKASGYKFTNYVMHWVRQAPGQRLEWMGYINPYNDGIKYNEKFTGRVTITRDTSASTAYMELSSLRSEDTAVYYCAREGDFYANYGRLGFDYWGQGTLVTVSS
VL: DIQMTQSPSSLSASVGDRVTITCRASQDISNYLNWYQQKPGKAPKLLLYYTSRLHSGVPSRFSGSGSGTDYTLTISSLQPEDFATYFCQQGAGRPYTFGGGTKVEIK
On to B7, for which, in assay [2], the Kd came to 42.5 nM, the dissociation rate constant (koff) amounted to 0.00907 s⁻¹ and the kon is 213000 M⁻¹ s⁻¹.

B8: hz140-Hm6/hz182-L (antibody, V domains shown)
VH: QVQLVQSGAEVKKPGASVKVSCKASGYKFTNYVMHWVRQAPGQRLEWMGYINPGNDGIKYNEKFTGRVTITRDTSASTAYMELSSLRSEDTAVYYCAREGDFYANYGRLGFAYWGQGTLVTVSS
VL: DIQMTQSPSSLSASVGDRVTITCRASQDISNYLNWYQQKPGKAPKLLLYYTSRLHSGVPSRFSGSGSGTDYTLTISSLQPEDFATYFCQQGAGRPYTFGGGTKVEIK
For the molecule B8, in assay [2], the dissociation constant Kd was 8.55 nM, the koff was found to be 0.00316 s⁻¹ and the kon is 370000 M⁻¹ s⁻¹.

B9: hz140-Hm10/hz182-L (antibody, V domains shown)
VH: QVQLVQSGAEVKKPGASVKVSCKASGYKFTNYVMHWVRQAPGQRLEWMGYINPYNEGIKYNEKFTGRVTITRDTSASTAYMELSSLRSEDTAVYYCAREGDFYANYGRLGFAYWGQGTLVTVSS
VL: DIQMTQSPSSLSASVGDRVTITCRASQDISNYLNWYQQKPGKAPKLLLYYTSRLHSGVPSRFSGSGSGTDYTLTISSLQPEDFATYFCQQGAGRPYTFGGGTKVEIK
For the molecule B9, in assay [2], the equilibrium dissociation constant (Kd) was below 0.001 nM, the koff is below 1e-07 s⁻¹ and the kon stood at 206000 M⁻¹ s⁻¹.

B10: hz140-Hm9/hz182-L (antibody, V domains shown)
VH: QVQLVQSGAEVKKPGASVKVSCKASGYKFTNYVMHWVRQAPGQRLEWMGYINPYNDAIKYNEKFTGRVTITRDTSASTAYMELSSLRSEDTAVYYCAREGDFYANYGRLGFAYWGQGTLVTVSS
VL: DIQMTQSPSSLSASVGDRVTITCRASQDISNYLNWYQQKPGKAPKLLLYYTSRLHSGVPSRFSGSGSGTDYTLTISSLQPEDFATYFCQQGAGRPYTFGGGTKVEIK
Turning to B10, in assay [2], the Kd was below 0.001 nM, the off-rate constant (koff) was below 1e-07 s⁻¹ and the on-rate constant (kon) worked out at 223000 M⁻¹ s⁻¹.

B11: hz140-Hm12/hz182-L (antibody, V domains shown)
VH: QVQLVQSGAEVKKPGASVKVSCKASGYTFTNYVMSWVRQAPGQRLEWMGYINPYNDAIKYNEKFTGRVTITRDTSASTAYMELSSLRSEDTAVYYCAREGDFYANYGRLGFAYWGQGTLVTVSS
VL: DIQMTQSPSSLSASVGDRVTITCRASQDISNYLNWYQQKPGKAPKLLLYYTSRLHSGVPSRFSGSGSGTDYTLTISSLQPEDFATYFCQQGAGRPYTFGGGTKVEIK
On to B11, for which, in assay [2], the equilibrium dissociation constant (Kd) was 14.7 nM, the koff is 0.00328 s⁻¹ and the kon worked out at 224000 M⁻¹ s⁻¹.

B12: hz140-Hm4/hz182-L (antibody, V domains shown)
VH: QVQLVQSGAEVKKPGASVKVSCKASGYKFTNYVMSWVRQAPGQRLEWMGYINPYNDGIKYNEKFTGRVTITRDTSASTAYMELSSLRSEDTAVYYCAREGDFYANYGRLGFAYWGQGTLVTVSS
VL: DIQMTQSPSSLSASVGDRVTITCRASQDISNYLNWYQQKPGKAPKLLLYYTSRLHSGVPSRFSGSGSGTDYTLTISSLQPEDFATYFCQQGAGRPYTFGGGTKVEIK
In the case of B12, in assay [2], the equilibrium dissociation constant (Kd) amounted to 5.97 nM, the off-rate constant (koff) was found to be 0.00171 s⁻¹ and the kon is 286000 M⁻¹ s⁻¹.

B13: 140Hm6/hz140L (Table 2) (antibody, V domains shown)
VH: QVQLVQSGAEVKKPGASVKVSCKASGYKFTNYVMHWVRQAPGQRLEWMGYINPYNDGIKYNEKFQGRVTITRDTSASTAYMELSSLRSEDTAVYYCAREGDFYANYGRLGFAYWGQGTLVTVSS
VL: DIQMTQSPSSLSASVGDRVTITCRASQDITNYLNWYQQKPGKAPKLLIYYTSRLHSGVPSRFSGSGSGTDYTFTISSLQPEDIATYFCQQGDTFPRTFGGGTKVEIK
notes: also called hz140-Hm/hz140L
For B13, in assay [1], the Kd was found to be 22.6 nM, the dissociation rate constant (koff) was 0.00707 s⁻¹ and the kon worked out at 313000 M⁻¹ s⁻¹.

B14: hz140-Hm3/hz182-L (antibody, V domains shown)
VH: QVQLVQSGAEVKKPGASVKVSCKASGYKFTNYAMHWVRQAPGQRLEWMGYINPYNDGIKYNEKFTGRVTITRDTSASTAYMELSSLRSEDTAVYYCAREGDFYANYGRLGFAYWGQGTLVTVSS
VL: DIQMTQSPSSLSASVGDRVTITCRASQDISNYLNWYQQKPGKAPKLLLYYTSRLHSGVPSRFSGSGSGTDYTLTISSLQPEDFATYFCQQGAGRPYTFGGGTKVEIK
Turning to B14, in assay [2], the Kd was 10.3 nM, the dissociation rate constant (koff) was 0.00308 s⁻¹ and the on-rate (kon) is 299000 M⁻¹ s⁻¹.

B15: 140Hm7/hz140L (Table 2) (antibody, V domains shown)
VH: QVQLVQSGAEVKKPGASVKVSCKASGYKFTNYVMHWVRQAPGQRLEWMGYINPYNDGIKYNEKFTGRVTITRDTSASTAYMELSSLRSEDTAVYYCAREGDFYANYGRLGFDYWGQGTLVTVSS
VL: DIQMTQSPSSLSASVGDRVTITCRASQDITNYLNWYQQKPGKAPKLLIYYTSRLHSGVPSRFSGSGSGTDYTFTISSLQPEDIATYFCQQGDTFPRTFGGGTKVEIK
notes: also called hz140-Hm/hz140L
For B15, in assay [1], the Kd is 61.4 nM, the dissociation rate constant (koff) is 0.0131 s⁻¹ and the on-rate (kon) worked out at 213000 M⁻¹ s⁻¹.

B16: hz140-Hm11/hz182-L (antibody, V domains shown)
VH: QVQLVQSGAEVKKPGASVKVSCKASGYKFTNYVMSWVRQAPGQRLEWMGYINPYNDAIKYNEKFTGRVTITRDTSASTAYMELSSLRSEDTAVYYCAREGDFYANYGRLGFAYWGQGTLVTVSS
VL: DIQMTQSPSSLSASVGDRVTITCRASQDISNYLNWYQQKPGKAPKLLLYYTSRLHSGVPSRFSGSGSGTDYTLTISSLQPEDFATYFCQQGAGRPYTFGGGTKVEIK
As to B16, in assay [2], the Kd was 6.53 nM, the koff is 0.0017 s⁻¹ and the on-rate (kon) is 260000 M⁻¹ s⁻¹.

B17: hz140-Hm1/hz182-L (antibody, V domains shown)
VH: QVQLVQSGAEVKKPGASVKVSCKASGYTFTNYVMHWVRQAPGQRLEWMGYINPYNDGIKYNEKFTGRVTITRDTSASTAYMELSSLRSEDTAVYYCAREGDFYANYGRLGFAYWGQGTLVTVSS
VL: DIQMTQSPSSLSASVGDRVTITCRASQDISNYLNWYQQKPGKAPKLLLYYTSRLHSGVPSRFSGSGSGTDYTLTISSLQPEDFATYFCQQGAGRPYTFGGGTKVEIK
As for B17, in assay [2], the Kd was found to be 1.67 nM, the koff amounted to 0.000542 s⁻¹ and the kon amounted to 325000 M⁻¹ s⁻¹.

B18: hz140-Hm2/hz182-L (antibody, V domains shown)
VH: QVQLVQSGAEVKKPGASVKVSCKASGYKFTSYVMHWVRQAPGQRLEWMGYINPYNDGIKYNEKFTGRVTITRDTSASTAYMELSSLRSEDTAVYYCAREGDFYANYGRLGFAYWGQGTLVTVSS
VL: DIQMTQSPSSLSASVGDRVTITCRASQDISNYLNWYQQKPGKAPKLLLYYTSRLHSGVPSRFSGSGSGTDYTLTISSLQPEDFATYFCQQGAGRPYTFGGGTKVEIK
Regarding B18, in assay [2], the dissociation constant Kd amounted to 1.71 nM, the dissociation rate constant (koff) was determined as 0.000541 s⁻¹ and the kon came to 317000 M⁻¹ s⁻¹.

Usually Kd stands for the concentration at which binding is half-saturated. The term koff denotes a measure of how fast the partners let go of each other. Usually kon stands for a measure of how fast the partners come together.

Values taken from patent US20230406921A1 (MABWELL SHANGHAI BIOSCIENCE, published 2023).
